Substitutions are numbered along the chain they refer to. Groups on a side chain read outwards from the residue. No end group written: not given here. NSMP = not defined here

The labels stand for the following.
T1: BSA-conjugated Aβ heptapeptide LVFFAEC (reading uncertain; also: BSA conjugate)
T1 construct: also called Peptide 17-22
T1 peptide: LVFFAEC([NSMP-BSA])

T2: BSA-conjugated Aβ heptapeptide FFAEDVC (C-terminal Cys coupled to NSMP-activated BSA)
T2 construct: also called Peptide 19-24
T2 peptide: FFAEDVC

T3: BSA-conjugated Aβ heptapeptide VFFAEDC (C-terminal Cys coupled to NSMP-activated BSA)
T3 construct: also called Peptide 18-23
T3 peptide: VFFAEDC

T4: BSA-conjugated Aβ heptapeptide AEFRHDC (C-terminal Cys coupled to NSMP-activated BSA)
T4 construct: also called Peptide 2-7
T4 peptide: AEFRHDC

B1: MS-R IgG1 3.6.H8 × 3.6.L2 (antibody, V domains shown)
VH: ELVESGGGLVQPGGSLRLSCAASGFTFSSYAMSWVRQAPGKGLEWVSAISEYSKFKYYADSVKGRFTISRDNSKNTLYLQMNSLRAEDTAVYYCARLTHYARYYRYFDVWGQGTLVTVSS
VL: DIVLTQSPATLSLSPGERATLSCRASQFLSRYYLAWYQQKPGQAPRLLIYGASSRATGVPARFSGSGSGTDFTLTISSLEPEDFAVYYCQQTYNYPPTFGQGTKVEIKR
notes: full-length human IgG1; VH entry starts at QLVESGG
B2: MS-R IgG1 7.4.H2 × 7.2.L1 (antibody, V domains shown)
VH: ELVESGGGLVQPGGSLRLSCAASGFTFSSYAMSWVRQAPGKGLEWVSAINYNGARIYYADSVKGRFTISRDNSKNTLYLQMNSLRAEDTAVYYCARGKGNTHKPYGYVRYFDVWGQGTLVTVSS
VL: B1 VL with F28Y, L29V, S30D, Y32T, V86T, T92I, N94S, Y95F, P97H
notes: as for B1
B3: MS-R #7.11.H1×7.2.L1 IgG1 (antibody, V domains shown)
VH: B2 VH with A48G, Y51A, N52A, A54F, I56T
VL: B1 VL with F28Y, L29V, S30D, Y32T, V86T, T92I, N94S, Y95F, P97H
notes: full-length human IgG1; VH entry starts at QLVESGG; also called MAB 11
B4: MS-R IgG1 7.11.H1 × 7.11.L1 (antibody, V domains shown)
VH: B2 VH with A48G, Y51A, N52A, A54F, I56T
VL: B1 VL with F28R, L29I, S30L, Y32I, V86T, T92V, N94S, Y95P, P97H
notes: as for B1
B5: MS-R IgG1 7.2.H4 (antibody, V domains shown)
VH: QVELVESGGGLVQPGGSLRLSCAASGFTFSSYAMSWVRQAPGKGLEWVSAINSKGSRIYYADSVKGRFTISRDNSKNTLYLQMNSLRAEDTAVYYCARGKGNTHKPYGYVRYFDVWGQGTLVTVSS
VL: DIVLTQSPATLSLSPGERATLSCRASQSVSSSYLAWYQQKPGQAPRLLIYGASSRATGVPARFSGSGSGTDFTLTISSLEPEDFATYYCQQIYSFPHTFGQGTKVEIK
notes: full-length human IgG1
B6: MS-R IgG1 7.12.L1 (antibody, V domains shown)
VH: B5 VH with E3Q, A33G, A50N, N52S, S53G, K54S, R57S, I58T
VL: DIVLTQSPATLSLSPGERATLSCRASQYVFRRYLAWYQQKPGQAPRLLISGSSNRATGVPARFSGSGSGTDFTLTISSLEPEDFAVYYCLQLYNIPNTFGQGTKVEIKR
notes: full-length human IgG1
B7: MS-Roche #8.2.L1 Fab (Fab, V domains shown)
VH: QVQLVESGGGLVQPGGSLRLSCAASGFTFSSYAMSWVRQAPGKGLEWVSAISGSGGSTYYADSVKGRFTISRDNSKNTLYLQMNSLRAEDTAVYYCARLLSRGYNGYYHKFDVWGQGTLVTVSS
VL: B1 VL with F28R, L29V, R31G, Y32R, V86T, T92L, Y93S, N94S
B8: MS-Roche #7.12 Fab (Fab, V domains shown)
VH: B5 VH with E3Q, A33G, A50N, N52S, S53G, K54S, R57S, I58T
VL: B6 VL with F30S, R31S, R32P
B9: MS-Roche #3.4.H17 Fab (Fab, V domains shown)
VH: QVQLVESGGGLVQPGGSLRLSCAASGFTFSSYAMSWVRQAPGKGLEWVSAISEFGQFIYYADSVKGRFTISRDNSKNTLYLQMNSLRAEDTAVYYCARLTHYARYYRYFDVWGQGTLVTVSS
VL: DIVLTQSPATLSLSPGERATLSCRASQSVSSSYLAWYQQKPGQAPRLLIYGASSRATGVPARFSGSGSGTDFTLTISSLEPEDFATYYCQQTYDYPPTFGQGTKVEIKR
B10: MS-Roche #7.11H1×7.2L1 Fab (Fab, V domains shown)
VH: B2 VH with E1Q, A48G, Y51A, N52A, A54F, I56T
VL: B1 VL with F28Y, L29V, S30D, Y32T, V86T, T92I, N94S, Y95F, P97H
notes: cross-cloned Fab; VH entry starts at QLVESGG
B11: MS-Roche #3.4H7×3.4L9 Fab (Fab, V domains shown)
VH: B1 VH with E1Q, A48V, Y52T, S53G, F55N, K56I
VL: B1 VL with Q27R, F28R, L29I, S30H, R31V, V86T, N94D
notes: cross-cloned Fab
B12: MS-Roche #8.1H1×8.2L1 Fab (Fab, V domains shown)
VH: QLVESGGGLVQPGGSLRLSCAASGFTFSSYAMSWVRQAPGKGLEWVSAISRSGSNIYYADSVKGRFTISRDNSKNTLYLQMNSLRAEDTAVYYCARLLSRGYNGYYHKFDVWGQGTLVTVSS
VL: B1 VL with F28R, L29V, R31G, Y32R, V86T, T92L, Y93S, N94S
notes: cross-cloned Fab
B13: MS-Roche #7.11H2×7.2L1(L1) Fab (Fab, V domains shown)
VH: B2 VH with E1Q, Y51A, A54Y, R55K, I56K
VL: B1 VL with F28Y, L29V, S30D, Y32T, V86T, T92I, N94S, Y95F, P97H
B14: MS-Roche #3.6H5×3.6L1 Fab (Fab, V domains shown)
VH: B1 VH with E1Q, Y52S, S53G, F55T
VL: B1 VL with L29I, S30Q, Y32F
notes: cross-cloned Fab
B15: MS-Roche #7.2H2×7.2L1 Fab (Fab, V domains shown)
VH: B2 VH with E1Q, Y51G, N52T, A54M, R55K, I56K
VL: B1 VL with F28Y, L29V, S30D, Y32T, V86T, T92I, N94S, Y95F, P97H
notes: cross-cloned Fab
B16: MS-Roche #7.4H2×7.2L1 Fab (Fab, V domains shown)
VH: B2 VH with E1Q
VL: B1 VL with F28Y, L29V, S30D, Y32T, V86T, T92I, N94S, Y95F, P97H
notes: as for B10
B17: MS-Roche #7.11H1×7.11L1 Fab (Fab, V domains shown)
VH: B2 VH with E1Q, A48G, Y51A, N52A, A54F, I56T
VL: B1 VL with F28R, L29I, S30L, Y32I, V86T, T92V, N94S, Y95P, P97H
notes: as for B10
B18: MS-Roche #3.6H5×3.6L2 Fab (Fab, V domains shown)
VH: B1 VH with E1Q, Y52S, S53G, F55T
VL: B1 VL
notes: as for B10
B19: MS-Roche #3.4H1×3.4L9 Fab (Fab, V domains shown)
VH: B1 VH with E1Q, Y52T, K54I, F55R
VL: B1 VL with Q27R, F28R, L29I, S30H, R31V, V86T, N94D
notes: cross-cloned Fab
B20: MS-Roche #3.4H3×3.4L7 Fab (Fab, V domains shown)
VH: B1 VH with E1Q, A48V, E51Q, Y52T, S53G, K54R, F55K, K56I
VL: B1 VL with F28R, S30G, Y32L, V86T, N94D
notes: cross-cloned Fab
B21: MS-Roche #3.4H7×3.4L7 Fab (Fab, V domains shown)
VH: B1 VH with E1Q, A48V, Y52T, S53G, F55N, K56I
VL: B1 VL with F28R, S30G, Y32L, V86T, N94D
notes: cross-cloned Fab
B22: MS-Roche #3.3H1×3.4L9 Fab (Fab, V domains shown)
VH: B1 VH with E1Q, A48V, Y52K, K54R, K56I
VL: B1 VL with Q27R, F28R, L29I, S30H, R31V, V86T, N94D
notes: cross-cloned Fab
B23: MS-Roche #3.4H3×3.4L9 Fab (Fab, V domains shown)
VH: B1 VH with E1Q, A48V, E51Q, Y52T, S53G, K54R, F55K, K56I
VL: B1 VL with Q27R, F28R, L29I, S30H, R31V, V86T, N94D
notes: cross-cloned Fab
B24: MS-Roche #7.4H2×7.12L2 Fab (Fab, V domains shown)
VH: B2 VH with E1Q
VL: B6 VL with Y28R, V29F, R31Y, R32K
notes: cross-cloned Fab
B25: MS-Roche #7.9H2×7.12L2(L1+2) Fab (Fab, V domains shown)
VH: B2 VH with E1Q, Y51A, N52D, A54N, I56K
VL: B6 VL with Y28R, V29F, R31Y, R32K, V86T, L92I, I95M, N97I
notes: VL assembled from the legend's definition and cloning strategy 3
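Throughout, for OD ratio 17-22/BSA: ELISA of antibody at 10 or 2 µg/ml binding plate-coated BSA–peptide conjugates, detected with HRP anti-human Ig and TMB colour, mock-treated BSA without peptide as negative control.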
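Throughout, for OD ratio 19-24/BSA: ELISA of antibody at 10 or 2 µg/ml binding plate-coated BSA–peptide conjugates, detected with HRP anti-human Ig and TMB colour, mock-treated BSA without peptide as negative control.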
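Throughout, for Peptide-ratio 17-22/2-7: ELISA of antibody at 10 or 2 µg/ml binding plate-coated BSA–peptide conjugates, detected with HRP anti-human Ig and TMB colour, mock-treated BSA without peptide as negative control.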
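Throughout, for Peptide-ratio 19-24/2-7: ELISA of antibody at 10 or 2 µg/ml binding plate-coated BSA–peptide conjugates, detected with HRP anti-human Ig and TMB colour, mock-treated BSA without peptide as negative control.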

The first experiment concerns the target T5, human Aβ (1-40) peptide (human).
T5 construct: also called Aβ1-40 fibers
Kind of experiment: SPR Scatchard, higher affinity (bivalent).
Method: (§1) Binders with fast kinetics were analyzed by fitting the concentration-dependent sensor responses at equilibrium (adsorption-isotherms). KD values were calculated from the Biacore sensograms based on the total Fab concentration as determined by a protein assay. […] Briefly, time-dependent protein binding to Aβ1-40 fibers immobilized on the Biacore chip was measured during the association phase under mass-limited conditions at different flow rates of the analyte solution.
(§2) KD values of IgG binding to Aβ1-40 and Aβ1-42 fibers were determined in the Biacore. Briefly, a kinetic model for the stepwise formation of a bivalent complex was used, and KD values were calculated by Scatchard type analysis of equilibrium binding. Due to the very slow association process at low antibody concentration (several hours to reach equilibrium) equilibrium binding data were obtained by extrapolation of the association curves to long time intervals. The on- and off rates for the formation of the monovalent and bivalent complex were determined via the curve fit procedure and used for the extrapolation. Based on these Req values a Scatchard analysis was performed and KD values for the formation of the monovalent and the bivalent complex were determined.
The molecule B1 had a Kd of 0.22 to 0.95 nM.

With B2, the Kd lay within 0.12 to 0.63 nM.

Regarding B3, the Kd lay within 0.14 to 0.66 nM.

With B4, the Kd was 0.11 to 0.7 nM.

Turning to B5, the Kd was 0.09 to 0.3 nM.

In the case of B6, the Kd fell in the range of 1.2 to 3.5 nM.

The target of the next experiment is T6, Aβ (1-42) peptide (human).
T6 construct: also called Aβ1-42 fibers; Aβ4
Kind of experiment: SPR Scatchard, higher affinity (bivalent).
Method: as §1, §2
As to B1, the Kd lay in the range of 0.22 to 0.82 nM.

B2 displayed a Kd of 0.12 to 0.56 nM.

B3 came in with a Kd of 0.15 to 0.67 nM.

The molecule B4 had a Kd of 0.13 to 0.7 nM.

Consider B5, for which the Kd was 0.1 to 0.66 nM.

B6 came in with a Kd of 0.74 to 2.9 nM.

The target in another experiment is T5, human Aβ (1-40) peptide. Nature of the experiment: SPR, immobilized fibers.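 Note: biacore SPR using in vitro grown Aβ1-40 or Aβ1-42 fibrils immobilized on the chip with Fab analytes, KD from koff/kon fits or equilibrium isotherms based on total Fab concentration.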 A general note: SPR reads the build-up and loss of mass on a sensor chip optically.
Method: (§3) Biacore2000 and Biacore3000 instruments were used for these measurements. Aβ1-40 and Aβ1-42 fibers were generated in vitro by incubation of synthetic peptides at a concentration of 200 μg/ml in 10 mM Na-acetate buffer (pH 4.0) for three days at 37° C. […] For binders with slow kinetics KD values were calculated by curve fitting of the time-dependent sensor responses, i.e. from the ratio of koff/kₒₙ. Binders with fast kinetics were analyzed by fitting the concentration-dependent sensor responses at equilibrium (adsorption-isotherms). KD values were calculated from the Biacore sensograms based on the total Fab concentration as determined by a protein assay. […] Briefly, time-dependent protein binding to Aβ1-40 fibers immobilized on the Biacore chip was measured during the association phase under mass-limited conditions at different flow rates of the analyte solution.
The molecule B7 registered a Kd of 4.8 nM.

Regarding B8, the Kd was determined as 28 nM.

With B9, the Kd amounted to 2 nM.

Another experiment has as its target T6, Aβ (1-42) peptide. Kind of experiment: SPR, immobilized fibers.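 Note: biacore SPR using in vitro grown Aβ1-40 or Aβ1-42 fibrils immobilized on the chip with Fab analytes, KD from koff/kon fits or equilibrium isotherms based on total Fab concentration.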
Method: as §3
For the molecule B7, the Kd came out at 3.7 nM.

B8 displayed a Kd of 60 nM.

B9: the Kd stood at 4.3 nM.

The target in another experiment is T1, BSA-conjugated Aβ heptapeptide LVFFAEC. Nature of the experiment: ELISA.
Method: (§4) 50 μl of NSMP activated BSA (6.7 mg/ml) was diluted with 50 μl of PBS, 0.1% sodium azide and 10 μl of peptide solution (1 mM in DMSO) was added. As negative control activated BSA was mock-treated without peptide addition. After 4 hrs at room temperature the reaction was stopped by addition of 10 μl of 10 mM Cystein. An aliquot of the conjugate reaction mixture was diluted 1:100 with 0.1M sodium bicarbonate buffer and immediately filled into the wells (100 μl) of ELISA plates (Nunc Immuno-Plate). After standing 16 hrs at 4° C. 100 μl blocking buffer (as above) was added to each well and incubated for another 30 minutes. The plates were washed with 2×300 μl/well TBST (as above) and filled with 100 μl antibody at 10 μg/ml or 2 μg/ml in blocking buffer. The plates were kept 16 hours at 4° C. and washed with 2×300 μl TBST. 100 μl/well HRP-conjugated anti-human Ig H+L (Pierce, dilution 1:1000 with blocking buffer) was added and incubated for 1 hour at ambient temperature. The plates were washed with 3×300 μl/well TBST. Colour development was started by addition of 100 μl tetra-methyl benzidine/hydrogen peroxide reagent.
As to B7, the “OD ratio 17-22/BSA” value worked out at 15 and the “Peptide-ratio 17-22/2-7” value was found to be 0.6.

For B8, the “OD ratio 17-22/BSA” value worked out at 6 and the “Peptide-ratio 17-22/2-7” value was determined as 0.16.

In the case of B9, the “OD ratio 17-22/BSA” value is 5 and the “Peptide-ratio 17-22/2-7” value amounted to 0.18.

The next experiment concerns the target T2, BSA-conjugated Aβ heptapeptide FFAEDVC. Nature of the experiment: ELISA. (ELISA stands for enzyme-linked immunosorbent assay.)
Method: as §4
Take B7: the “OD ratio 19-24/BSA” value is 31 and the “Peptide-ratio 19-24/2-7” value amounted to 1.22.

For B8, the “OD ratio 19-24/BSA” value stood at 7 and the “Peptide-ratio 19-24/2-7” value was determined as 0.18.

With B9, the “OD ratio 19-24/BSA” value came to 11 and the “Peptide-ratio 19-24/2-7” value turned out to be 0.39.

Another experiment deals with T3, BSA-conjugated Aβ heptapeptide VFFAEDC. Nature of the experiment: ELISA.
Method: as §4
With B7, the “OD ratio 18-23/BSA” value was 32 and the “Peptide-ratio 18-23/2-7” value was found to be 1.26.

In the case of B8, the “OD ratio 18-23/BSA” value is 8 and the “Peptide-ratio 18-23/2-7” value was 0.21.

In the case of B9, the “OD ratio 18-23/BSA” value worked out at 12 and the “Peptide-ratio 18-23/2-7” value stood at 0.43.

For another experiment, the target named is T4, BSA-conjugated Aβ heptapeptide AEFRHDC. Kind of experiment: ELISA.
Method: as §4
For the molecule B7, the “OD ratio 2-7/BSA” value is 26.

As for B8, the “OD ratio 2-7/BSA” value is 38.

Regarding B9, the “OD ratio 2-7/BSA” value came out at 28.

The next experiment has as its target T5, human Aβ (1-40) peptide. Kind of experiment: SPR, kinetic fit, immobilized fibers.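 Note: surface plasmon resonance on a Biacore chip bearing in vitro formed Aβ1-40 or Aβ1-42 fibers, KD taken as koff/kon by fitting time-resolved sensor responses, based on total Fab concentration.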
Method: as §3
B10: the Kd was 1.75 nM.

B11: the Kd amounted to 2.66 nM.

B12: the Kd amounted to 1.3 nM.

As for B13, the Kd was 1 nM.

B14 registered a Kd of 1.25 nM.

Consider B15, for which the Kd is 1.29 nM.

Molecule B16 returned a Kd of 1.4 nM.

Regarding B17, the Kd was 0.41 nM.

Consider B18, for which the Kd was 1.26 nM.

B19 registered a Kd of 0.25 nM.

In turn, B20 came in with a Kd of 0.92 nM.

B21 had a Kd of 1.19 nM.

In turn, B22 gave a Kd of 2.16 nM.

B23 had a Kd of 1.05 nM.

B24 returned a Kd of 1.4 nM.

Molecule B25 yielded a Kd of 0.4 nM.

For another experiment, the target named is T6, Aβ (1-42) peptide. Kind of experiment: SPR, kinetic fit, immobilized fibers.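 Note: surface plasmon resonance on a Biacore chip bearing in vitro formed Aβ1-40 or Aβ1-42 fibers, KD taken as koff/kon by fitting time-resolved sensor responses, based on total Fab concentration.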
Method: as §3
For B10, the Kd was 1.39 nM.

The molecule B11 came in with a Kd of 3.51 nM.

Molecule B12 returned a Kd of 1.6 nM.

For B13, the Kd turned out to be 0.6 nM.

Molecule B14 came in with a Kd of 1.04 nM.

B15 displayed a Kd of 1.43 nM.

For the molecule B16, the Kd stood at 1.4 nM.

B17 yielded a Kd of 0.47 nM.

For B18, the Kd came to 0.84 nM.

For the molecule B19, the Kd is 0.5 nM.

B20 had a Kd of 0.92 nM.

For B21, the Kd amounted to 1.23 nM.

B22 came in with a Kd of 2.97 nM.

For B23, the Kd amounted to 0.93 nM.

For B24, the Kd worked out at 1.8 nM.

B25: the Kd was determined as 0.4 nM.

Source of the values: patent US20100172907A1 (Hoffmann-La Roche, published 2010).
